According to patent US20250263490A1 (VIB VZW, published 2025):
Where two headings read alike, the source gives them in different places.

How the values were obtained:
[1] = target: T1, recombinant human domain 1-3His6 of the cation-independent mannose-6-phosphate receptor (human, UniProt P11717 41-467); assay: in-tandem competitive BLI, biotinylated hDom1-3His6 on SA sensors, purified VHH at 400 nM
T1 construct: Biotinylated (NHS-PEG4-biotin) for BLI; Glycosylated; also called hDom1-3His6; hCI-M6PRD1-D3

[2] = target: T1, recombinant human domain 1-3His6 of the …; assay: ELISA on coated antigen (100 ng), anti-VHH-HRP, A450
Protocol: (§1) To determine the effect of site-directed mutations, an ELISA was performed. To this end, 100 ng of each successfully purified mutant was coated per well on Nunc Maxisorp plates in 50 mM MES, 150 mM NaCl, pH 6.5 buffer overnight at 4° C. […] Coating-only controls were included for background correction. […] Reactions were stopped after five minutes using a 2N H₂SO₄ solution and plates were read at 450 nm, with a 655 nm background correction. Data were analyzed using the GraphPad Prism 9 software.

[3] = target: T1, recombinant human domain 1-3His6 of the …; assay: as above; remark: listed apart in the source
Protocol: as §1

[4] = target: T1, recombinant human domain 1-3His6 of the …; assay: BLI exp 1, dissoc pH 5
Protocol: (§2) For each of the 11 anti-CI-M6PR VHHs, a biolayer interferometry (BLI) experiment was performed in which the hDom₁₋₃His₆ was biotinylated and coupled to streptavidin biosensor tips. Afterwards, the tips were incubated with serially diluted VHHs during the association phase and dissociation was performed at pH 7.4. Similarly, dissociation was performed at pH 7.0, pH 6.0 and pH 5.0 as well after regeneration of the biosensor tips. […] The anti-CI-M6PR antibody (clone 2G11) and GBP were used as positive and negative controls, respectively.
(§3) Analysis of the binding kinetics was performed using an Octet Red96 (FortéBio) device with Streptavidin SA Biosensor tips (VWR 733-2145). Therefore, 1 mL of human domain₁₋₃His₆ (0.5 mg/mL in 50 mM MES, 150 mM NaCl, pH 6.5) was incubated at room temperature for 30 minutes with EZ-Link™ NHS-PEG4-Biotin (1 mg) (Thermo Fischer A39259) and NaHCO₃ (100 mM). Biotinylated human domain₁₋₃His₆ was purified using a Zeba spin desalting Column™ (7K MWCO, 2 mL, Thermo Fischer 89890) and 1 μg/mL was used for immobilization on the Streptavidin SA Biosensor tips. The loaded tips were dipped into a particular anti-CI-M6PR VHH solution, serially diluted in kinetics buffer (0.2M NaH₂PO₄, 0.1M Na⁺ citrate, 0.01% BSA, 0.002% Tween20, pH 7.4). This was followed by dissociation of the particular anti-CI-M6PR VHH in kinetics buffer of pH 7.4, followed by regeneration in Glycine (10 mM, pH 3) and neutralisation. Same cycle was repeated but the dissociation was performed at pH 7.0, 6.0, 5.0, 4.5 and 4.0. A reference well and reference sensors were subtracted from ligand sensors afterwards and Savitsky-Golay filtering was applied on the data. Fitting of the data was performed using a 1:1 model, grouped per pH of dissociation.

[5] = target: T1, recombinant human domain 1-3His6 of the …; assay: BLI exp 1, dissoc pH 6
Protocol: as §2, §3

[6] = target: T1, recombinant human domain 1-3His6 of the …; assay: BLI exp 1, dissoc pH 7
Protocol: as §2, §3

[7] = target: T1, recombinant human domain 1-3His6 of the …; assay: BLI exp 2, dissoc pH 5
Protocol: as §2
(§4) Analysis of the binding kinetics was performed using an Octet Red96 (FortéBio) device with Streptavidin SA Biosensor tips (VWR, 733-2145). To this end, 1 mL of hCI-M6PR_D1-D3 (0.5 mg/mL in 50 mM MES, 150 mM NaCl, pH 6.5) was incubated at room temperature for 30 minutes with a two-fold molar excesses of EZ-Link™ NHS-PEG₄-Biotin (Thermo Fischer, A39259) and NaHCO₃ (100 mM, pH 8.3). Biotinylated hCIMPR_D1-D3 was purified using a Zeba spin desalting column (Thermo Fischer, 89890) and protein concentration was calculated by measuring the absorbance at 280 nm (extinction coefficient 50320 M¹ cm⁻¹). Two-fold biotin-labelled antigen was loaded on the tips (2.5 μg/mL) and subsequently dipped into a particular anti-CI-M6PR VHH-containing solution (ranging from 0-100 nM). Serial VHH dilutions were made in kinetics buffer (0.2 M Na₂HPO₄, 0.1 M Na⁺ citrate, 0.01% BSA, 0.002% Tween20, pH 7.4). After association (100 sec), dissociation was conducted (500 sec) for each anti-CI-M6PR VHH in the kinetics buffer, followed by biosensor regeneration in glycine (10 mM, pH 3) and neutralisation. The same cycle was repeated with dissociation performed in kinetics buffer of pH 7.0, 6.5, 6.0, 5.5, and 5.0.
(§5) A reference well and reference sensors were subtracted from ligand sensors afterwards and Savitsky-Golay filtering was applied on the data. Fitting of the data was performed using a 1:1 model, grouped per dissociation pH.

[8] = target: T1, recombinant human domain 1-3His6 of the …; assay: BLI exp 2, dissoc pH 6
Protocol: as §2, §4, §5

[9] = target: T1, recombinant human domain 1-3His6 of the …; assay: BLI exp 2, dissoc pH 7
[10] = target: T1, recombinant human domain 1-3His6 of the …; assay: BLI exp 1, dissoc pH 7.4
Protocol: as §2, §3

[11] = target: T1, recombinant human domain 1-3His6 of the …; assay: BLI at pH 7.4, 1st of 2 repeats
Protocol: as §2, §3

[12] = target: T1, recombinant human domain 1-3His6 of the …; assay: ELISA on coated antigen, 1st of 2 repeats
Protocol: (§6) FIGS. 4A-4B. Affinity of anti-CI-M6PR VHHs for recombinant human CI-M6PR Domain 1-3His₆ determined by ELISA. A & B. Measurements for each of the 11 anti-CI-M6PR VHHs in serial dilution binding to the coated human CI-M6PR Domain 1-3His₆ antigen. Detection was performed using an anti-VHH antibody coupled to HRP, and measured as the absorbance of the TMB substrate at 450 nm, correlating to the amount of bound VHH as plotted at the Y-axis. The Log₁₀ concentrations of the serially diluted VHHs were plotted at the X-axis. […] A & B represent replicates but using a different concentration of human CI-M6PR Domain 1-3His₆ (in (FIG. 4A): 0-0.75 μM and in (FIG. 4B): 0-1 μM).
(§7) We evaluated the affinity of the VHHs against the hDom₁₋₃His₆ using ELISA. Coated hDom₁₋₃His₆ was incubated with serially diluted VHH that was afterwards detected using an anti-VHH antibody, coupled to HRP.

[13] = target: T1, recombinant human domain 1-3His6 of the …; assay: ELISA on coated antigen, 2nd of 2 repeats
Protocol: as §6, §7

[14] = target: T2, recombinant mouse domain 1-3His6 of CI-M6PR (mouse, UniProt Q07113 36-418); assay: ELISA: coated mouse CI-M6PR Domain 1-3His6, serially diluted VHH, anti-VHH-HRP, TMB, Abs 450 nm; sigmoidal regression [table at the right]
T2 construct: Genbank NM_010515.2); Range includes the signal peptide; also called mDom1-3His6; mCI-M6PRD1-D3
Protocol: FIGS. 5A-5B. Affinity of anti-CI-M6PR VHHs for recombinant mouse CI-M6PR Domain 1-3His₆ determined by ELISA. (FIG. 5A) Measurement for each of the 11 anti-CI-M6PR VHHs in serial dilution binding to the coated mouse antigen. Detection was performed using an anti-VHH antibody coupled to HRP, and measured as the absorbance of the TMB substrate at 450 nm, correlating to the amount of bound VHH as plotted at the Y-axis. The Log₁₀ concentrations of the serially diluted VHHs were plotted at the X-axis.
To evaluate the cross-reactivity of the anti-CI-M6PR nanobodies between the human and mouse CI-M6PR domain 1-3His₆ antigen, ELISA was performed with the eleven serially diluted anti-CI-M6PR nanobodies. […] By performing sigmoidal regression on the derived absorbance curves, half-maximal effective concentration (EC₅₀) values of each VHH were acquired, representing the required concentration to occupy 50% of the coated antigen. As a negative control, GBP was included in the assay.

T2 sequence (Q07113 other isoform, or with tags, fused parts or gaps): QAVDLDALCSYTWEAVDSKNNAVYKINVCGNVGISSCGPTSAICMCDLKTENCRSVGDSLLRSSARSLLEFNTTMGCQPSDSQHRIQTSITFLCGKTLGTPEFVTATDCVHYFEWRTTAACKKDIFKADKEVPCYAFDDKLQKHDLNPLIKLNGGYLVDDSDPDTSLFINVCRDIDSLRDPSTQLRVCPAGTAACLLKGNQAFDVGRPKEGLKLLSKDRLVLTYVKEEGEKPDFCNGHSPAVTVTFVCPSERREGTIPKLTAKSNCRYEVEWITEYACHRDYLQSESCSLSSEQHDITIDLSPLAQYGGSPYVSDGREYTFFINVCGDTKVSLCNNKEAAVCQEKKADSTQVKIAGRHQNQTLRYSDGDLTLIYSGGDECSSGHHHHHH

B1: humanized VHH7 variant VHH7 h3 (VHH)
VHH: DVQLVESGGGLVQPGGSLRLSCAASGIIFSDNRMDWYRQAPGKQREWVATLASYGWKTYADSVKGRFTISRDNTKNTVYLQMNSLRPEDTAVYYCKASSPVLNDIWGQGTLVTVSS
notes: made in E. coli
B1: binds [1].

B2: humanized VHH7 variant VHH7 h1 (VHH)
VHH: EVQLVESGGGLVQPGGSLRLSCAASGIIFSDNRMDWYRQAPGKQREWVATLASYGWKTYADSVKGRFTISRDNSKNTVYLQMNSLRPEDTAVYYCKASSPVLNDIWGQGTLVTVSS
notes: made in E. coli
B2: binds [1].

B3: humanized VHH7 variant VHH7hWN (VHH)
VHH: DVQLVESGGGLVQPGGSLRLSCAASGIIFSDNRMDWYRQAPGKQREWVATLASYGWKTYADSVKGRFTISRDNAKNTVYLQMNSLRPEDTAVYYCKASSPVLNDIWGQGTLVTVSS
notes: His6-tagged, made in HEK293S
B3 was tested, and the “EC50 (read off the curve)” value [2] was about 0.5 nM and the “EC50 (read off the curve)” value [3] was about 0.5 nM.

B4: humanized VHH7 variant VHH7 h2 (VHH)
VHH: DVQLVESGGGLVQPGGSLRLSCAASGIIFSDNRMDWYRQAPGKQREWVATLASYGWKTYADSVKGRFTISRDNSKNTVYLQMNSLRPEDTAVYYCKASSPVLNDIWGQGTLVTVSS
notes: made in E. coli
B4: binds [1].

B5: humanized VHH8 variant VHH8 h2 (VHH)
VHH: DVQLVESGGGLVQPGGSLRLSCAASGRTFNTYNWGWFRQAPGKEREFVAAIRWSSSKTSYADSVKGRFTISRDNSKNTVYLQMNSLRPEDTAVYYCAASIVDFTTNPSHFGSWGQGTLVTVSS
notes: made in E. coli
B5: binds [1].

B6: humanized VHH8 variant VHH8 h3 (VHH)
VHH: DVQLVESGGGLVQAGGSLRLSCAASGRTFNTYNWGWFRQAPGKEREFVAAIRWSSSKTSYADSVKGRFTISRDNSKNTVYLQMNSLRPEDTAVYYCAASIVDFTTNPSHFGSWGQGTLVTVSS
notes: made in E. coli
B6: binds [1].

B7: humanized VHH8 variant VHH8 h1 (VHH)
VHH: EVQLVESGGGLVQPGGSLRLSCAASGRTFNTYNWGWFRQAPGKEREFVAAIRWSSSKTSYADSVKGRFTISRDNSKNTVYLQMNSLRPEDTAVYYCAASIVDFTTNPSHFGSWGQGTLVTVSS
notes: made in E. coli
B7: binds [1].

B8: humanized VHH8 variant VHH8hWN (VHH)
VHH: DVQLVESGGGLVQPGGSLRLSCAASGRTFNTYNWGWFRQAPGKEREFVAAIRWSSSKTSYADSVKGRFTISRDNAKNTIYLQMNSLRPEDTAVYYCAASIVDFTTNPSHFGSWGQGTLVTVSS
notes: His6-tagged, made in HEK293S
B8 was tested, and the “EC50 (read off the curve)” value [2] was about 3 nM and the “EC50 (read off the curve)” value [3] was about 3 nM.

B9: anti-CI-M6PR VHH2 (VHH)
VHH: QVQLQESGGGLVQPGGSLRLSCVFSGRTFMSYDVGWFRQAPGKERELLSSITSSSSSPYYAESVKGRFAVSRDGAKKTVYLRMNSLEPEDTAVYYCAARENWRNDWQYWGQTQVTVSS
notes: His6-tagged; made in Pichia pastoris
Work on B9 yielded a Kd [4] of 10 nM, a koff [4] of 0.00746 s⁻¹ and a kon [4] of 745000 M⁻¹ s⁻¹. For the same binder, the Kd [5] was 5.96 nM, the koff [5] was 0.00513 s⁻¹ and the kon [5] was 862000 M⁻¹ s⁻¹. It also gave a Kd [6] of 24.2 nM, a koff [6] of 0.0161 s⁻¹ and a kon [6] of 665000 M⁻¹ s⁻¹. It also gave a koff [7] of 0.074 s⁻¹, a kon [7] of 745000 M⁻¹ s⁻¹ and a koff [8] of 0.0748 s⁻¹. For the same binder, the kon [8] was 3.76e+06 M⁻¹ s⁻¹, the koff [9] was 0.0136 s⁻¹ and the kon [9] was 1.56e+06 M⁻¹ s⁻¹. It also gave a Kd [10] of 5.3 nM, a koff [10] of 0.0036 s⁻¹ and a kon [10] of 679000 M⁻¹ s⁻¹. It also gave a Kd [11] of 5.3 nM, a koff [11] of 0.0036 s⁻¹ and a kon [11] of 679000 M⁻¹ s⁻¹. For the same binder, the EC50 [12] was 0.0608 nM, the EC50 [13] was 0.177 nM and the EC50 [14] was 104 nM.
